Experimental data taken from patent US20100056762A1 (published 2010).
Bridges are numbered along the chain shown (N, C = ends). Where no end group is shown, it is not given here.

Experiments:
[1] = target: wild-type epidermal growth factor receptor (wtEGFR) (human) (UniProt P00533); assay: Scatchard, A431 cells
[2] = target: C271A/C283A EGFR mutant (human) (UniProt P00533); assay: FACS, Ba/F3 cells, four clones; reference M2 anti-FLAG
wtEGFR-FLAG (human) = wtEGFR-FLAG (human) (UniProt P00533); assay: FACS, Ba/F3 cells; reference M2 anti-FLAG
[3] = target: T1, EGFR peptide 287-302 (mAb806 peptide epitope) (human, disulfide 1-16); assay: BIAcore, immobilised peptide, antibody 200 nM
T1 peptide: CGADSYEMEEDGVRKC

| Molecule | receptors per cell (receptors per cell) [1] | ratio of antibody binding mAb 528/M2 (ratio of median fluorescence) [2] | ratio of antibody binding mAb 528/M2 (ratio of median fluorescence) (wtEGFR-FLAG (human)) | maximal binding (RU) [3] |
| --- | --- | --- | --- | --- |
| 528 antibody | 2e+06 | 1.08 | 1.37 | – |
| mAb1133 (antibody, V domains shown, murine IgG2a; also called 1133 antibody; clone 1133) VH: DVQLQGSGPSLVKPSQSLSLTCTVTGYSITSDYAWNWIRQFPGNKLEWMGYISYSGNTRYNPSLRSRISITRDTSKNQFFLQLNSVTTEDTATYYCATAGRGFPYWGQGTLVTVSA VL: DILMTQSPSSMSVSLGDTVNITCHSSQDINSNIGWLQQKPGKSFKGLIYHGTNLDDGVPSRFSGSGSGADYSLTISSLESEDFADYYCVQYGQFPWTFGGGTKLEIKR | – | – | – | 800 RU |
